According to paper PMC2615623 (Nucleic Acids Research, 2008):

Key:
[1] = target: T1, His-tagged human RNASEH2C (human, UniProt Q8TDP1 1-164); experiment: SEC
T1 sequence (looked up): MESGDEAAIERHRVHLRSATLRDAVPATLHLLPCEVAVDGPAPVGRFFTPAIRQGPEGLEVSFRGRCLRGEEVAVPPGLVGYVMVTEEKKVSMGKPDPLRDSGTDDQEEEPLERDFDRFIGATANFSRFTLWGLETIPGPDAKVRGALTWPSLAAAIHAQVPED

[2] = target: T2, His-tagged human RNASEH2B (human, UniProt Q5TBB1 1-312); experiment: SEC
T2 sequence (looked up): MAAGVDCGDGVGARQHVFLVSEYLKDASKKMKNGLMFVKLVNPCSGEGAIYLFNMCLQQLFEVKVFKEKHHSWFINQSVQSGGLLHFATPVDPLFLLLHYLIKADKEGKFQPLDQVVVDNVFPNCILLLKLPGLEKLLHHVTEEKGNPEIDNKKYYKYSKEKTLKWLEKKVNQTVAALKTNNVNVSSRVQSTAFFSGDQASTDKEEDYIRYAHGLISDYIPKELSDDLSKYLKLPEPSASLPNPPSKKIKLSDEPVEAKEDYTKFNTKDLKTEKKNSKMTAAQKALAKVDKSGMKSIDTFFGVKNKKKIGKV

B1: His-tagged human RNASEH2A (natural protein, UniProt O75792 1-299, looked up)
chain: MDLSELERDNTGRCRLSSPVPAVCRKEPCVLGVDEAGRGPVLGPMVYAICYCPLPRLADLEALKVADSKTLLESERERLFAKMEDTDFVGWALDVLSPNLISTSMLGRVKYNLNSLSHDTATGLIQYALDQGVNVTQVFVDTVGMPETYQARLQQSFPGIEVTVKAKADALYPVVSAASICAKVARDQAVKKWQFVEKLQDLDTDYGSGYPNDPKTKAWLKEHVEPVFGFPQFVRFSWRTAQTILEKEAEDVIWEDSASENQEGLRKITSYFLNEGSQARPRSSHRYFLERGLESATSL
stoichiometry N [1]: 1 A:B:C | stoichiometry N [2]: 1 A:B:C
